The source of these data is PMC6711705, “Tailored tetravalent antibodies potently and specifically activate Wnt/Frizzled pathways in cells, organoids and mice” (eLife, 2019).

For assay [1], the target named is T1, Fc-tagged FZD7 CRD (Homo sapiens, UniProt O75084).
T1 construct: Frizzled-7, human, cysteine rich domain (CRD); also called FZD7-Fc; source: bought: R and D Systems
Briefly: SPR; soluble F^P Fab or IgG injected over FZD-Fc immobilised on a GLC sensor by amine coupling; PBS, 0.05% Tween20, 0.5% BSA; 25 °C; 1:1 Langmuir model, global fit. The settings on record: both partners purified. (In SPR one partner is held on a chip, and binding of the other changes the refractive index at the surface.)

The target of assay [2] is T2, Fc-tagged FZD4 CRD (Homo sapiens, UniProt Q9ULV1).
T2 construct: Frizzled-4, human, cysteine rich domain (CRD); also called FZD4-Fc; source: bought: R and D Systems
Described as above. The settings on record: both partners purified.

The target in assay [3] is T3, Fc-tagged FZD2 CRD (Homo sapiens, UniProt Q14332).
T3 construct: Frizzled-2, human, cysteine rich domain (CRD); also called FZD2-Fc; source: bought: R and D Systems
The description is as above. To be noted: both partners purified.

In the next assay the target is T4, Fc-tagged FZD1 CRD (Homo sapiens, UniProt Q9UP38).
T4 construct: Frizzled-1, human, cysteine rich domain (CRD); also called FZD1-Fc; source: bought: R and D Systems
The assay is described as above. To be noted: both partners purified.

The target of assay [4] is T2, Fc-tagged FZD4 CRD.
Target sequence in this assay (Q9ULV1 40-161): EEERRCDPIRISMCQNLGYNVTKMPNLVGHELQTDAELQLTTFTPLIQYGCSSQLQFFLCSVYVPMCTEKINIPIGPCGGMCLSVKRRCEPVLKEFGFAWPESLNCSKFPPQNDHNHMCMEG
In assay [5] the target is T3, Fc-tagged FZD2 CRD.
The target of assay [6] is T1, Fc-tagged FZD7 CRD.

Read-outs that look alike come from different tables or passages of the source.

B1: F^P Fab (Fab, V domains shown)
VH: EVQLVESGGGLVQPGGSLRLSCAASGFNIGSSSIHWVRQAPGKGLEWVASIYSAFASTSYADSVKGRFTISADTSKNTAYLQMNSLRAEDTAVYYCARYHFPFGFALDYWGQGTLVTVSS
VL: DIQMTQSPSSLSASVGDRVTITCRASQSVSSAVAWYQQKPGKAPKLLIYSASSLYSGVPSRFSGSRSGTDFTLTISSLQPEDFATYYCQQGVYLFTFGQGTKVEIK
notes: VH as the F^P VH of m1; constant part of the Fab heavy chain; the Fab construct is not described; VL as the F^P VL of m1; constant part of the Fab light chain; Parent paratope of the N-terminal diabody of m1; also called pan-FZD Ab (F^P); source: Expi293F, transient transfection, purified (rProtein A Sepharose)
With B1, the binding result in the assay with Fc-tagged FZD7 CRD [1], with Fc-tagged FZD4 CRD [2], with Fc-tagged FZD2 CRD [3] and with Fc-tagged FZD1 CRD was “binds” in each case.

B2: FLAg 4+4 (anti-FZD4 paratope) (antibody, V domains shown)
VH: EVQLVESGGGLVQPGGSLRLSCAASGFNSSFYFMHWVRQAPGKGLEWVATVYPYLDYTYYADSVKGRFTISADTSKNTAYLQMNSLRAEDTAVYYCARAFPGSYHPMDYWGQGTLVTVSS
VL: DIQMTQSPSSLSASVGDRVTITCRASQSVSSAVAWYQQKPGKAPKLLIYSASSLYSGVPSRFSGSRSGTDFTLTISSLQPEDFATYYCQQSSYSLITFGQGTKVEIK
Turning to B2, the binding result with Fc-tagged FZD4 CRD [4] is reported as “binds”.

B3: FLAg 2+2 (anti-FZD2 paratope) (antibody, V domains shown)
VH: EVQLVESGGGLVQPGGSLRLSCAASGFNIYYSSIHWVRQAPGKGLEWVASIYPYYGYTYYADSVKGRFTISADTSKNTAYLQMNSLRAEDTAVYYCARYYHYGLDYWGQGTLVTVSS
VL: DIQMTQSPSSLSASVGDRVTITCRASQSVSSAVAWYQQKPGKAPKLLIYSASSLYSGVPSRFSGSRSGTDFTLTISSLQPEDFATYYCQQSYWHSYLITFGQGTKVEIK
Regarding B3, in the assay with Fc-tagged FZD2 CRD [5], the binding result was “binds”.

B4: FLAg 7+7 (anti-FZD7 paratope) (antibody, V domains shown)
VH: EVQLVESGGGLVQPGGSLRLSCAASGFNISSSSMHWVRQAPGKGLEWVASIYSYYGSTYYADSVKGRFTISADTSKNTAYLQMNSLRAEDTAVYYCARWYGMDYWGQGTLVTVSS
VL: DIQMTQSPSSLSASVGDRVTITCRASQSVSSAVAWYQQKPGKAPKLLIYSASSLYSGVPSRFSGSRSGTDFTLTISSLQPEDFATYYCQQPGSWYFPPITFGQGTKVEIK
Turning to B4, the binding result with Fc-tagged FZD7 CRD [6] is recorded as “binds”.
